What was measured:
[1] = tested on: MDA-MB231 tumor; assay: In vivo efficacy, subcutaneous tumor xenograft; parameters: species or system Athymic nu/nu mice; settings: intraperitoneal, every fourth day, 5 doses; tumor volume by caliper
Method: (§3) Athymic nu/nu (Harlan, Somerville, N.J.) female mice 4-6 weeks of age were injected subcutaneously with 5×10^6 tumor cells. […] Each treatment group consisted of groups of mice ranging in number from 10-12.
(§4) Tumor volume measurements were taken with a caliper routinely (1-2 times/week) starting at the initiation of drug treatment.

[2] = tested on: PC3 tumor; assay: In vivo efficacy, subcutaneous tumor xenograft; parameters: species or system Athymic nu/nu mice; settings: intraperitoneal, every fourth day, 5 doses; tumor volume by caliper
Method: as §3, §4

[3] = tested on: PC3 cells; assay: Fluorescent visualization of internalization of α-EphA2 antibodies; type: cell-based, human; settings: 50 μg/ml Ab, 20 or 60 minutes at 37° C.
Method: FIG. 18. […] PC3 cells were labeled with either human α-EphA2 mAb (G5; panels A and B) or R347 isotype control (panel C). Cell surface attached antibodies were then allowed to internalize by incubating the cells under growth conditions for either zero (non-internalized: panels A and C) or […] (internalized: panel B). All cells were then fixed (4% formaldehyde), permeabilized (0.5% Triton X-100), and stained with AlexaFluor 488-Ab prior to addition of antifade mounting media and fluorescent microscopy examination.
(§1) Cells (PC3, HUVEC, or CT26) were grown for 24-48 hours at 37° C./5% CO2 at a concentration of 2.5-5.0×10^4 cells per 400 μl of appropriate growth media per chamber on Nunc's Tek II 8-chamber slides. […] Cells were then washed 2× with PBS and cell-surface-bound primary Abs were allowed to internalize by covering the cells with growth media and incubation at 37° C./5% CO2 for 0 minutes, 20 minutes (FIGS. 18A-C and 19), or 60 minutes (FIG. 17).
(§2) Subsequent to internalization, cells were fixed (4% paraformaldehyde), permeabilized (0.5% Triton X-100), and labeled with secondary AlexaFluor 488 goat-α-human IgG Ab (Biosource), with 2× cold PBS washing in between steps.
Finally, the cells were covered with […] Mounting Media with DAPI (Vector Labs) and a coverslip prior to examination and photography with fluorescent confocal microscope. […]

[4] = tested on: HuVec cells; assay: as above; type: cell-based, human; settings: 50 μg/ml Ab, 20 minutes at 37° C.
Method: as §1, §2
Finally, the cells were covered with […] Mounting Media with DAPI (Vector Labs) and a coverslip prior to examination and photography with fluorescent confocal microscope. Results of the antibody internalization experiments are shown in the fluorescent microscopy pictures of FIGS. 16, 17, 18A, 18B, 18C, and 19 herein. EphA2 was rapidly internalized in these cell lines upon binding the agonistic EphA2 antibodies.

[5] = target: T1, EphA2 (Homo sapiens, UniProt P29317); assay: EphA2 receptor activation (phosphorylation, immunoprecipitation/Western); type: cell-based; settings: HuVec cells
T1 construct: endogenous in cells; host or cells: HUVEC (human)
Method: Cells were grown overnight at 37° C./5% CO2 at a concentration of 0.5×10^6 cells per 3 ml of appropriate growth media per well in 6-well tissue culture plates. […] The cells were incubated for 15 minutes at 37° C./5% CO2 to activate EphA2 receptor. Subsequent to activation the cells were washed 1× with cold PBS and lysed on ice with 1% Triton X-100 lysis buffer containing Phosphatase Inhibitor Cocktails 1 and 2 (Sigma) and Complete Protease Inhibitor Cocktail Tablets (Roche), added as per manufacturer's recommendation. D7 α-EphA2 mAb and 50 μl of protein A sepharose beads pre-conjugated to rabbit anti-mouse IgG were mixed with lysate at 4° C. overnight to immunoprecipitate the proteins.
Protein lysates were resolved by 10% Bis-Tris NuPAGE Western gel and transferred electrophoretically to nitrocellulose membranes (Invitrogen) following manufacturer's protocol. […] See also Coffman et al., Cancer Res. 63: 7907-7912, 2003.

T1 sequence (P29317 24-976): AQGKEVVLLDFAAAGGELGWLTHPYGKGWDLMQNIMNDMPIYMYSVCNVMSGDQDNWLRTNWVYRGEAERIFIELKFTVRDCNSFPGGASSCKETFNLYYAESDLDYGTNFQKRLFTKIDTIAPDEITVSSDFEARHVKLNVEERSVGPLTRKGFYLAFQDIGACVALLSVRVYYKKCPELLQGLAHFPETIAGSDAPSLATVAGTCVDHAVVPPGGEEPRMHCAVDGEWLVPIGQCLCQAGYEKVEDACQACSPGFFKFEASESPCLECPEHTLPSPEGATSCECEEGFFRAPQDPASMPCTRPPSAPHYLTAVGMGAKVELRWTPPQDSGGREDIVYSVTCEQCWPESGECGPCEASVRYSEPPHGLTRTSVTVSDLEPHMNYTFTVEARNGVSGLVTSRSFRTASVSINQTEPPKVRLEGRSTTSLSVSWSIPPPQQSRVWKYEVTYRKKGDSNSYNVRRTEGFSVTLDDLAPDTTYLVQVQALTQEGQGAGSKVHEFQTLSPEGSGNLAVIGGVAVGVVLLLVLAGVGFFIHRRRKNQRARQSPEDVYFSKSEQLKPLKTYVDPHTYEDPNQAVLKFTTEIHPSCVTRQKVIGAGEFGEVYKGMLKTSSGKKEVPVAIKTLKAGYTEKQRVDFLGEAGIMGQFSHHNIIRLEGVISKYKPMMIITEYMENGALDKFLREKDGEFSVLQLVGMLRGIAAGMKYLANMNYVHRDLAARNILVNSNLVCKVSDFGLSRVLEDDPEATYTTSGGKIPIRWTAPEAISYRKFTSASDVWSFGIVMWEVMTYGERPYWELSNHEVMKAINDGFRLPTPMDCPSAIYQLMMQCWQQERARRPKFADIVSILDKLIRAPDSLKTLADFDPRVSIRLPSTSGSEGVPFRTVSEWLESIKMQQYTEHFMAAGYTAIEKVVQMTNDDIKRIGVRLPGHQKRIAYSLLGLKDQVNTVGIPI

B1: G5vcMMAF: anti-EphA2 antibody G5 conjugated to MMAF with the valine-citrulline (vc) linker (conjugate)
VH: QMQLVQSGPEVKKPGTSVKVSCKASGFTFTDYSMNWVRQARGQRLEWIGFIRNKANDYTTEYSASVKGRVTITRDMSTSTAYMELSSLRSEDTAVYYCARYPRYHAMDSWGQGTSVTVSS
VL: DIQMTQSPSSLSASVGDRVTITCRASQSISNNLHWYQQKPGKAPKLLIKYVFQSISGVPSRFSGSGSGTDFTFTISSLQPEDFATYYCQQSNSWPLTFGGGTKVEIKG
modifications: non-natural residues
notes: anti-EphA2 antibody G5 conjugated to MMAF with the valine-citrulline (vc) linker
In the case of B1, the “MDA-MB231 tumor growth in vivo” value [1] is reported as “specifically inhibited” and the “PC3 tumor growth in vivo” value [2] is reported as “specifically inhibited”.

B2: G5: humanized agonistic monoclonal antibody that binds EphA2; VH/VL SEQ ID NO. 103 and 104 (antibody, V domains shown)
VH: B1 VH
VL: B1 VL
modifications: Antibody variable region
For B2, the internalization by immunofluorescence [3] was “internalization”.

B3: 3F2vcMMAE: anti-EphA2 antibody 3F2 conjugated to MMAE with a vc linker (conjugate)
VH: EVQLVESGGGVVRPGGSLRLSCAASGFTVSDYSMNWVRQAPGKGLEWIGFIRNKANAYTTEYSASVKGRFTISRDDSKNTLYLQMNSLKTEDTAVYYCTTYPRYHAMDSWGQGTMVTVSS
VL: AIQLTQSPSSLSASVGDRVTITCRASQSISNNLHWYLQKPGQSPQLLIYYGFQSISGVPSRFSGSGSGTDFTLTISSLQPEDFATYYCQQANSWPLTFGGGTKLEIK
modifications: non-natural residues
notes: anti-EphA2 antibody 3F2 conjugated to MMAE with a vc linker
B3 was tested, and the “PC3 tumor growth in vivo” value [2] was “specifically inhibit”.

B4: 3F2: humanized agonistic monoclonal antibody that binds EphA2; VH/VL SEQ ID NO: 63 and 64 (antibody, V domains shown)
VH: B3 VH
VL: B3 VL
modifications: Antibody Variable Heavy chain; Antibody Variable region
With B4 the internalization by immunofluorescence [4] was “Internalization” and the EphA2 phosphorylation [5] was “EphA2 phosphorylation”.
